Measured values published in patent publication US20070048268A1 (ZymoGenetics, published 2007).

Biological target: biotinylated murine IL-21 (murine, UniProt Q9ES17 18-146)
Experiment: flow cytometry on MOLT-13, HuT-78, HuT-102, DEL and YT cells, 40 ng/ml to 1000 ng/ml, Streptavidin-PE
Description: Cells were analyzed on a FACSScan using CellQuest software (Becton Dickinson, Mountain View, Calif.).

binding result: binds
B1: human IL-21 receptor (receptor)
chain: not shown
notes: also called zalpha11 receptor; zalpha11
